# Measured values published in PMC5506826.
# What was measured:
# Details in all cases: EMSA: 40 mM Tris-HCl pH 8, 100 mM KCl, 0.5 mM DTT, 0.05% NP40, 2 mM spermidine, 0.2 mM EDTA, 8% glycerol, 15 ng/ul herring sperm DNA, 30 min room temperature …
# [1] = system: T1, 6His-SUMO-RegA (Acidithiobacillus ferrooxidans ATCC 23270T), ORF:158a6978; assay: EMSA
# T1 sequence: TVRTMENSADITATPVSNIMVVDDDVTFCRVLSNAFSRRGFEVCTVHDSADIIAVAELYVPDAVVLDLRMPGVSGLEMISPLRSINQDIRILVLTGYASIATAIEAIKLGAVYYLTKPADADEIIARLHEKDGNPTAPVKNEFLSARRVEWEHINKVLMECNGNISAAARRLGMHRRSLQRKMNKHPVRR
# [2] = system: T1, 6His-SUMO-RegA (Acidithiobacillus ferrooxidans ATCC 23270T), ORF:158a6978; assay: DLS
# [3] = system: T2, RegA-HTH-6His (Acidithiobacillus ferrooxidans ATCC 23270T), ORF:158a6978; assay: EMSA
# T2 sequence: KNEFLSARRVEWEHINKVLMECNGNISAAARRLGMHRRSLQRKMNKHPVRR
Sequence,binding [1],binding [2],binding [3]
CATTATGCGGCTGGCACAATACATGCATAAAACATCTCGTGCTGCCGCGGGATTCTCATTTTCATTTACTCATTGAATATCATAAGCGGGATGCAGCCATAAATATAACGCTGGTTGTGTTATTGGGAGCGAGCATTTAATTCTGTTGATATCGTTTATGGGAATAACAAAAGTGGAGACGCAGCTGAAAAAGCGAAGCTGATGACAGAGTACGTTATACCTCACCAAATGGATTGGAGACTTGATATGCC (double strand) [tet 251 bp],binds,,
CCCCAGTCATGAAGCCTACCGTGGTAATCGCCCCCCTTGCGGTTAAGCTAACTACTTCTGGTAAACCCCACTTCCATGGTGTGACGGGCGGTGTG (double strand) [rrs 16S 95 bp],,no binding,no binding
TGTCAGTTTTTGGGACATTTTAGTGATCGCGGCATATAATTAAAAGGCCAGATTAACATGTTTAAATAACGTTAGCACATAATTCTTTTCTTATGTTCTTTATTTAAGTTATTGTGTTTTAGTGGATCCGTATCGTGATG (double strand) [rus PI 140 bp],binds,,
